Measured values from article PMC1919378 (BMC Structural Biology, 2007).

T1: Gnd1 (6PGDH/Gnd1) (Saccharomyces cerevisiae, UniProt P38720)
T1 construct: full length, 489 residues; pET28a-derived vector, E. coli Rosetta (DE3); homodimer; residues 1-476 seen in crystal
T1 sequence (P38720 1-489): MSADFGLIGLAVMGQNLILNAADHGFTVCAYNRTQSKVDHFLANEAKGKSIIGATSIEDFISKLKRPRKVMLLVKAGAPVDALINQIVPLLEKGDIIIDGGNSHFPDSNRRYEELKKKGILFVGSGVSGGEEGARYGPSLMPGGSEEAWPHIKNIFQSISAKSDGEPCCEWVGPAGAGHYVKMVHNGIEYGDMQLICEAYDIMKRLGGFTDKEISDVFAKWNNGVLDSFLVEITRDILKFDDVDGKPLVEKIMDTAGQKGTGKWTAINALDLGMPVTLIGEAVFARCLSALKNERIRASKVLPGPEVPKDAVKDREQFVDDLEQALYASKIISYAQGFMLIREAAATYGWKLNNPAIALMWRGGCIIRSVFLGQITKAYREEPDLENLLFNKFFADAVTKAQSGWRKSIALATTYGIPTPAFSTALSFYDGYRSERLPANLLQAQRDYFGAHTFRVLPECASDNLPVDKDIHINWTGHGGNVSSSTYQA

B1: Gnd1ΔC35 (domain or fragment, S. cerevisiae, UniProt P38720 1-454, looked up)
chain: MSADFGLIGLAVMGQNLILNAADHGFTVCAYNRTQSKVDHFLANEAKGKSIIGATSIEDFISKLKRPRKVMLLVKAGAPVDALINQIVPLLEKGDIIIDGGNSHFPDSNRRYEELKKKGILFVGSGVSGGEEGARYGPSLMPGGSEEAWPHIKNIFQSISAKSDGEPCCEWVGPAGAGHYVKMVHNGIEYGDMQLICEAYDIMKRLGGFTDKEISDVFAKWNNGVLDSFLVEITRDILKFDDVDGKPLVEKIMDTAGQKGTGKWTAINALDLGMPVTLIGEAVFARCLSALKNERIRASKVLPGPEVPKDAVKDREQFVDDLEQALYASKIISYAQGFMLIREAAATYGWKLNNPAIALMWRGGCIIRSVFLGQITKAYREEPDLENLLFNKFFADAVTKAQSGWRKSIALATTYGIPTPAFSTALSFYDGYRSERLPANLLQAQRDYFGAHTF
notes: 6-phosphogluconate dehydrogenase Gnd1, S. cerevisiae, ORF YHR183W/GND1, residues 1-454 of 489 (C-terminal 35 residues deleted); Cloned into the pET28a-derived vector and purified as the full-length protein; also called Gnd1 without the C-terminal 35 residues; source: E. coli Rossetta (DE3), purified (Ni2+ chromatography, Superdex 200 gel filtration)
B2: Gnd1ΔC39 (domain or fragment, S. cerevisiae, UniProt P38720 1-450, looked up)
chain: MSADFGLIGLAVMGQNLILNAADHGFTVCAYNRTQSKVDHFLANEAKGKSIIGATSIEDFISKLKRPRKVMLLVKAGAPVDALINQIVPLLEKGDIIIDGGNSHFPDSNRRYEELKKKGILFVGSGVSGGEEGARYGPSLMPGGSEEAWPHIKNIFQSISAKSDGEPCCEWVGPAGAGHYVKMVHNGIEYGDMQLICEAYDIMKRLGGFTDKEISDVFAKWNNGVLDSFLVEITRDILKFDDVDGKPLVEKIMDTAGQKGTGKWTAINALDLGMPVTLIGEAVFARCLSALKNERIRASKVLPGPEVPKDAVKDREQFVDDLEQALYASKIISYAQGFMLIREAAATYGWKLNNPAIALMWRGGCIIRSVFLGQITKAYREEPDLENLLFNKFFADAVTKAQSGWRKSIALATTYGIPTPAFSTALSFYDGYRSERLPANLLQAQRDYFG
notes: 6-phosphogluconate dehydrogenase Gnd1, S. cerevisiae, ORF YHR183W/GND1, residues 1-450 of 489 (C-terminal 39 residues deleted); Cloned into the pET28a-derived vector and purified as the full-length protein; also called Gnd1 without the C-terminal 39 residues; source: E. coli Rossetta (DE3), purified (Ni2+ chromatography, Superdex 200 gel filtration)
B3: Saccharomyces cerevisiae 6-phosphogluconate dehydrogenase Gnd1 (enzyme, S. cerevisiae, UniProt P38720 1-489, looked up)
chain: T1 sequence (P38720 1-489)
notes: 6-phosphogluconate dehydrogenase Gnd1, S. cerevisiae strain S288C, ORF YHR183W/GND1, 489 residues; residues 1-476 are seen in the crystal structure; The asymmetric unit holds one monomer (final model 1-476 for one monomer); the dimer is described as the biological unit; also called 6PGDH/Gnd1; 6PGDH
B4: Gnd1ΔC53 (domain or fragment, S. cerevisiae, UniProt P38720 1-436, looked up)
chain: MSADFGLIGLAVMGQNLILNAADHGFTVCAYNRTQSKVDHFLANEAKGKSIIGATSIEDFISKLKRPRKVMLLVKAGAPVDALINQIVPLLEKGDIIIDGGNSHFPDSNRRYEELKKKGILFVGSGVSGGEEGARYGPSLMPGGSEEAWPHIKNIFQSISAKSDGEPCCEWVGPAGAGHYVKMVHNGIEYGDMQLICEAYDIMKRLGGFTDKEISDVFAKWNNGVLDSFLVEITRDILKFDDVDGKPLVEKIMDTAGQKGTGKWTAINALDLGMPVTLIGEAVFARCLSALKNERIRASKVLPGPEVPKDAVKDREQFVDDLEQALYASKIISYAQGFMLIREAAATYGWKLNNPAIALMWRGGCIIRSVFLGQITKAYREEPDLENLLFNKFFADAVTKAQSGWRKSIALATTYGIPTPAFSTALSFYDGYRSER
notes: 6-phosphogluconate dehydrogenase Gnd1, S. cerevisiae, ORF YHR183W/GND1, residues 1-436 of 489 (C-terminal 53 residues, the entire C-terminal tail, deleted); Cloned into the pET28a-derived vector and purified as the full-length protein; also called Gnd1 without the C-terminal 53 residues; source: E. coli Rossetta (DE3), purified (Ni2+ chromatography, Superdex 200 gel filtration)

How the values were obtained:
Gnd1 (6PGDH/Gnd1) = biological target: T1, Gnd1 (6PGDH/Gnd1); assay: X-ray crystal structure, […] Å; assay type: binding; details: crystallised from 1.28 M tri-sodium citrate pH 6.5; two citrates per monomer in the 6-phosphogluconate site, contacts from both chains
[1] = biological target: the molecule itself; assay: SEC; dimer found 'through purification and crystallization'; purification by Ni2+ chromatography and gel filtration on Superdex 200 (20 mM Tris-HCl pH 8.0, 200 mM NaCl, 20 mM β-mercaptoethanol); 'homodimer in solution'
purified protein = substrate: NC(=O)c1ccc[n+]([C@@H]2O[C@H](COP(=O)(O)OP(=O)(O)OC[C@H]3O[C@@H](n4cnc5c(N)ncnc54)[C@H](OP(=O)(O)O)[C@@H]3O)[C@@H](O)[C@H]2O)c1; assay: purified protein; details: co-substrate 6-phosphogluconate (0.1-0.5 mM, varied), Gly-Gly 50 mM pH 7.5, MgCl2 10 mM, 28°C, ionic strength 0.03
[2] = biological target: the molecule itself; assay: crystal structure; hanging-drop vapour diffusion at 15°C, 1.28 M tri-sodium citrate pH 6.5; 2.37 Å, molecular replacement; two citrate molecules bound to each monomer

Molecule | stoichiometry N [1] | other results
O=C(O)CC(O)(CC(=O)O)C(=O)O [citrate] |  | X-ray crystal structure, 2.37 Å (Gnd1 (6PGDH/Gnd1)): two citrate molecules were bound to the active site of each Gnd1 monomer
B1 | 2 | 
B2 | 2 | 
B3 |  | Km (purified protein): 35 ± 6 µM; stoichiometry N [2]: 2
B4 | 2 | 
